Here are results for two variants from publication PMC9236607, “TUBA1A tubulinopathy mutants disrupt neuron morphogenesis and override XMAP215/Stu2 regulation of microtubule dynamics” (eLife, 2022).

B1: purified budding yeast tubulin heterodimer, Tub1-WT (internal 6X-His) with Tub2 [S. cerevisiae] / GST-TOG1/2 (the two TOG domains of Stu2 fused to a GST tag, Stu2 1-590) [S. cerevisiae] (parent complex)
chain 1: MREVISINVGQAGCQIGNACWELYSLEHGIKPDGHLEDGLSKPKGGEEGFSTFFHETGYGKFVPRAIYVDLEPNVIDEVRNGPYKDLFHPEQLISGKEDAANNYARGHYTVGREILGDVLDRIRKLADQCDGLQGFLFTHSLGGGTGSGLGSLLLEELSAEYGKKSKLEFAVYPAPQVSTSVVEPYNTVLTTHTTLEHADCTFMVDNEAIYDMCKRNLDIPRPSFANLNNLIAQVVSSVTASLRFDGSLNVDLNEFQTNLVPYPRIHFPLVSYSPVLSKSKAFHESNSVSEITNACFEPGNQMVKCDPRDGKYMATCLLYRGDVVTRDVQRAVEQVKNKKTVQLVDWCPTGFKIGICYEPPTATPNSQLATVDRAVCMLSNTTSIAEAWKRIDRKFDLMYAKRAFVHWYVGEGMEEGEFTEAREDLAALERDYIEVGADSYAEEEEF
chain 2: MREIIHISTGQCGNQIGAAFWETICGEHGLDFNGTYHGHDDIQKERLNVYFNEASSGKWVPRSINVDLEPGTIDAVRNSAIGNLFRPDNYIFGQSSAGNVWAKGHYTEGAELVDSVMDVIRREAEGCDSLQGFQITHSLGGGTGSGMGTLLISKIREEFPDRMMATFSVLPSPKTSDTVVEPYNATLSVHQLVEHSDETFCIDNEALYDICQRTLKLNQPSYGDLNNLVSSVMSGVTTSLRYPGQLNSDLRKLAVNLVPFPRLHFFMVGYAPLTAIGSQSFRSLTVPELTQQMFDAKNMMAAADPRNGRYLTVAAFFRGKVSVKEVEDEMHKVQSKNSDYFVEWIPNNVQTAVCSVAPQGLDMAATFIANSTSIQELFKRVGDQFSAMFKRKAFLHWYTSEGMDELEFSEAESNMNDLVSEYQQYQEATVEDDEEVDENGDFGAPQNQDEPITENFE
chain 3: MSGEEEVDYTTLPLEERLTYKLWKARLEAYKELNQLFRNSVGDISRDDNIQIYWRDPTLFAQYITDSNVVAQEQAIVALNSLIDAFASSSLKNAHNITLISTWTPLLVEKGLTSSRATTKTQSMSCILSLCGLDTSITQSVELVIPFFEKKLPKLIAAAANCVYELMAAFGLTNVNVQTFLPELLKHVPQLAGHGDRNVRSQTMNLIVEIYKVTGNNSDLLEEILFKKLKPIQVKDLHKLFAKVGDEPSSSKMLFEWEKRELEKKRSQEEEARKRKSILSNDEGEYQIDKDGDTLMGMETDMPPSKQQSGVQIDTFSMLPEETILDKLPKDFQERITSSKWKDRVEALEEFWDSVLSQTKKLKSTSQNYSNLLGIYGHIIQKDANIQAVALAAQSVELICDKLKTPGFSKDYVSLVFTPLLDRTKEKKPSVIEAIRKALLTICKYYDPLASSGRNEDMLKDILEHMKHKTPQIRMECTQLFNASMKEEKDGYSTLQRYLKDEVVPIVIQIVNDTQPAIRTIGFESFAILIKIFGMNTFVKTLEHLDNLKRKKIEETVKTLPNFSIASGSTHSTIETNKQTGPMENKFLLK

In this experiment the parent is B1. Briefly: in vitro binding assay: unbound tubulin in supernatant after GST-TOG1/2 incubation, α-tubulin western blot; highest GST-TOG1/2 concentration, est. ~5000 nM read from x axis; low constant tubulin concentration; n=3 experiments; parent: 14; read off a plot.
Regarding chain 1 V410I, the screen value is approximately 71%. Take chain 1 V410A: the screen value was approximately 85%.
